Molecular brightness, times that of eGFP (times that of eGFP) and stoichiometry N data for two substances are collected here from paper PMC2599858.

Bounds are passed on as bounds.

The target of test [1] is nonlabeled αCaMKII (Ca2+/CaM-dependent protein kinase II, alpha) (UniProt P11275). The test is described as follows: number and brightness.
The next test concerns the target eGFP-CaMKII (UniProt P11275). The test is described as follows: number and brightness.

eGFP-CaMKII, sequence (P11275 whole entry): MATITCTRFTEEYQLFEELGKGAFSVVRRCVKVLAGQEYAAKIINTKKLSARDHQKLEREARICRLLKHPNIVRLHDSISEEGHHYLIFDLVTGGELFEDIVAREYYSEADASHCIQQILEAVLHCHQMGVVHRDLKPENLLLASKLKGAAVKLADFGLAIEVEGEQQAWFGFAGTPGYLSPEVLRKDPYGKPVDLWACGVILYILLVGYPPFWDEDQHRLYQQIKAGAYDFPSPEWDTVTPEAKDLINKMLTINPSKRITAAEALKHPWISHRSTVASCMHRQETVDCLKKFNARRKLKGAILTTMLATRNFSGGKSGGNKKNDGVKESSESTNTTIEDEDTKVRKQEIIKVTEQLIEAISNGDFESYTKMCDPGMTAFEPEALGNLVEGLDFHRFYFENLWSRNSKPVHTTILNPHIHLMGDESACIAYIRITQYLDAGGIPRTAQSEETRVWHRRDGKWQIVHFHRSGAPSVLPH

“enhanced green fluorescent protein (eGFP)-CaM (from UniProt P0DP23 1-149) (natural protein)”: the molecular brightness, times that of eGFP (times that of eGFP) in test [1] is 3. As a reminder, the stoichiometry N is a count of units in the complex or per binding partner. “eGFP-CaMKII (from UniProt P11275 1-478) (enzyme)”: in the test with eGFP-CaMKII, the stoichiometry N is > 3.
